Reference: patent publication US20220195446

Legend:
[1] = system: ZnFng-WUS1 ATF (synthetic construct); test: cell_activity; details: endogenous WUS2 mRNA by RT-PCR relative to Act1 in corn protoplasts; range 8-12%; mock nearly zero; binding inferred from activation
[2] = system: ZnFng-WUS2 ATF (synthetic construct); test: cell_activity; details: endogenous WUS2 mRNA by RT-PCR relative to Act1 in corn protoplasts; range 15-60%; mock nearly zero; binding inferred from activation
ZnFng-WUS2 ATF (synthetic construct), sequence (chain, as listed by the source): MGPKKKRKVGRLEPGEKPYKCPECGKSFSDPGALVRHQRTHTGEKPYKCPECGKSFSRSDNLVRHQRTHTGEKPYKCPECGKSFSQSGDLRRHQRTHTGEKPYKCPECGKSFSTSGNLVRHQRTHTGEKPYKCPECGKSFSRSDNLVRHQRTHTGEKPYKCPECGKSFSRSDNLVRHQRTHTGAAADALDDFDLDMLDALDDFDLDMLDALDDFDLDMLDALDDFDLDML

ZnFng-WUS1 ATF (synthetic construct), sequence (chain, as listed by the source): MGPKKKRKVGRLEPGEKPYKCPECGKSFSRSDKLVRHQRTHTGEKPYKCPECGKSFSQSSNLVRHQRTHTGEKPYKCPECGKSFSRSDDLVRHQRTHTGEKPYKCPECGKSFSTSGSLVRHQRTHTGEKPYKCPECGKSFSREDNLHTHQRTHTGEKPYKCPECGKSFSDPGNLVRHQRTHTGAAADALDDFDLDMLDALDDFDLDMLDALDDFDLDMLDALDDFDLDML

Sequence | activity [1] | activity [2]
GACTAGGTTGCGGAAGGG (double strand) [ZnFng-WUS1 binding site in maize WUS2 promoter] | 10 % of actin | 
GAGGAGGATGCAGAGGTC (double strand) |  | 50 % of actin
